Tests used:
[1] = compound: N=C(N)NCCC[C@H](N)C(=O)N[C@@H](Cc1c[nH]c2ccccc12)C(=O)N[C@@H](Cc1c[nH]c2ccccc12)C(=O)O; test: Inhibition of porcine pancreatic Alpha-amylase using starch as substrate assessed as Km pre-incubated for 20 mins followed by substrate addition and measured after 15 mins by Lineweaver-Burk plot analysis (reference value: 0.657 mM); settings: Sus scrofa; time 35.0 min
[2] = compound: N=C(N)NCCC[C@H](N)C(=O)N[C@@H](Cc1c[nH]c2ccccc12)C(=O)N[C@@H](Cc1c[nH]c2ccccc12)C(=O)O; test: Inhibition of porcine pancreatic Alpha-amylase using starch as substrate assessed as maximum velocity pre-incubated for 20 mins followed by substrate addition and measured after 15 mins by Lineweaver-Burk plot analysis (reference value: 0.666); settings: Sus scrofa; time 35.0 min

B1: Pancreatic alpha-amylase (Sus scrofa), P00690 (protein)
chain: MKLFLLLSAFGFCWAQYAPQTQSGRTSIVHLFEWRWVDIALECERYLGPKGFGGVQVSPPNENIVVTNPSRPWWERYQPVSYKLCTRSGNENEFRDMVTRCNNVGVRIYVDAVINHMCGSGAAAGTGTTCGSYCNPGNREFPAVPYSAWDFNDGKCKTASGGIESYNDPYQVRDCQLVGLLDLALEKDYVRSMIADYLNKLIDIGVAGFRIDASKHMWPGDIKAVLDKLHNLNTNWFPAGSRPFIFQEVIDLGGEAIQSSEYFGNGRVTEFKYGAKLGTVVRKWSGEKMSYLKNWGEGWGFMPSDRALVFVDNHDNQRGHGAGGASILTFWDARLYKVAVGFMLAHPYGFTRVMSSYRWARNFVNGQDVNDWIGPPNNNGVIKEVTINADTTCGNDWVCEHRWRQIRNMVWFRNVVDGQPFANWWANGSNQVAFGRGNRGFIVFNNDDWQLSSTLQTGLPGGTYCDVISGDKVGNSCTGIKVYVSSDGTAQFSISNSAEDPFIAIHAESKL
Km [1]: 704 µM | Vmax [2]: 0.574
